# T1: Recombinant human leptin binding domain (hLBD) (human, UniProt P48357 428-635, biotinylated with Sulfo-NHS-LC-Biotin in the yeast display assays; not labelled when immobilized in the plate binding assay)
# T1 construct: CRH2 sub-domain of the leptin receptor; Prepared in the applicants' laboratory; also called soluble human leptin receptor; CHR2
# T1 sequence (looked up): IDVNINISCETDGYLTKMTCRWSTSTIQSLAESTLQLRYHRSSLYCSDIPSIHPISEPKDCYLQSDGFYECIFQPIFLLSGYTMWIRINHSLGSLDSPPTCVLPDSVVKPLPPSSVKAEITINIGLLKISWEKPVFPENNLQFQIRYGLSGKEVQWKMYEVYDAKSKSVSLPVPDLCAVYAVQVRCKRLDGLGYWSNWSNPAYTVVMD
# B1: pegylated superactive mouse leptin antagonist (PEG-SMLA) (ligand)
# chain: VPIQKVQDDTKTLIKTLVTRINLISHTQSVSAKQRVTGAAAIPGLHPILSLSKMDQTLAVYQQVLTSLPSQNVLQIANDLENLRDLLHLLAFSKSCSLPQTSGLQKPESLDGVLEASLYSTEVVALSRLQGSLQDILQQVDLSPGC
# modifications: mPEG-propionyl-ALD 20 kDa, preferentially on the N-terminal amino group (85% monopegylated, ~9% double pegylated)
# notes: also called pegylated SMLA; superANT
# B2: human leptin super antagonist (SHLA), human leptin D23L/L39A/D40A/F41A (ligand)
# chain: VPIQKVQDDTKTLIKTIVTRINLISHTQSVSSKQKVTGAAAIPGLHPILTLSKMDQTLAVYQQILTSMPSQNVIQISNDLENLRDLLHVLAFSKSCHLPWASGLETLDSLGGVLEASGYSTEVVALSRLQGSLQDMLWQLDLSPGC
# notes: also called super active human leptin antagonist
# B3: pegylated human leptin super antagonist (PEG-SHLA) (ligand)
# chain: VPIQKVQDDTKTLIKTIVTRINLISHTQSVSSKQKVTGAAAIPGLHPILTLSKMDQTLAVYQQILTSMPSQNVIQISNDLENLRDLLHVLAFSKSCHLPWASGLETLDSLGGVLEASGYSTEVVALSRLQGSLQDMLWQLDLSPGC
# modifications: mPEG-propionyl-ALD 20 kDa, preferentially on the N-terminal amino group
# B4: pegylated mouse leptin antagonist (PEG-MLA) (ligand)
# chain: AVPIQKVQDDTKTLIKTIVTRINDISHTQSVSAKQRVTGAAAIPGLHPILSLSKMDQTLAVYQQVLTSLPSQNVLQIANDLENLRDLLHLLAFSKSCSLPQTSGLQKPESLDGVLEASLYSTEVVALSRLQGSLQDILQQLDVSPEC
# modifications: pegylated (method previously described for MLA; 20 kDa PEG, site not restated here)
# notes: mature; also called pegylated-MLA
# How the values were obtained:
# [1] = target: long form of human leptin receptor (hLEPR) on BAF/3 or H-49 (HEK-293) cells (human) (UniProt P48357); assay: cell-based or functional assay
# [2] = target: Recombinant human leptin binding domain (hLBD) (human) (UniProt P48357); assay: competitive plate binding assay: immobilized hLBD, biotinylated mouse leptin as ligand, mutein as competitor
# [3] = target: T1, Recombinant human leptin binding domain …; assay: competitive plate binding assay on immobilized hLBD, representative experiment (FIG. 7D)
# Protocol: (§1) Biotinylated mouse leptin served as the ligand in all competitive experiments and the respective mouse leptin or mouse or human leptin antagonist muteins as competitors. The hLBD was used as the receptor source. Polystyrene 96-well microtiter plates were coated overnight at 4° C. with 100 μl of 40 μM hLBD in PBS pH 7.4. Wells were then washed one time with PBST (PBS containing 0.05 Tween 20) and blocked with PBS containing 3% skim milk for two hours in room temperature. All further incubations were carried out at room temperature. Wells were washed one time with PBST and incubated with different concentrations of un-labeled leptins (50 μl/well) for 30 min and then 50 μl of 62.5 μM of biotinylated mouse leptin were added to each well for another two hours. Then the wells were washed three times with PBST and incubated with 1:30,000 streptavidin-HRP in PBS containing 1 Tween 20 for one hour. Subsequently the wells were washed three times with PBST and the reaction was quantified in 450 nm by microplate reader ELISA Plate Reader ELx808—Bio-Tek Instrument Inc. (Winooski, Vt., USA) using TMB according to manufacturer's instructions.
# [4] = target: T1, Recombinant human leptin binding domain …; assay: competitive plate binding assay on immobilized hLBD (FIG. 12C)
# Protocol: as §1
# [5] = target: T1, Recombinant human leptin binding domain …; assay: competitive plate binding assay on immobilized hLBD (FIG. 12D)
# Protocol: as §1
# [6] = target: T1, Recombinant human leptin binding domain …; assay: competitive plate binding assay on immobilized hLBD
# Protocol: as §1
# Chain of long form of human leptin receptor (hLEPR) on BAF/3 or H-49 (HEK-293) cells (human) (P48357 22-1165): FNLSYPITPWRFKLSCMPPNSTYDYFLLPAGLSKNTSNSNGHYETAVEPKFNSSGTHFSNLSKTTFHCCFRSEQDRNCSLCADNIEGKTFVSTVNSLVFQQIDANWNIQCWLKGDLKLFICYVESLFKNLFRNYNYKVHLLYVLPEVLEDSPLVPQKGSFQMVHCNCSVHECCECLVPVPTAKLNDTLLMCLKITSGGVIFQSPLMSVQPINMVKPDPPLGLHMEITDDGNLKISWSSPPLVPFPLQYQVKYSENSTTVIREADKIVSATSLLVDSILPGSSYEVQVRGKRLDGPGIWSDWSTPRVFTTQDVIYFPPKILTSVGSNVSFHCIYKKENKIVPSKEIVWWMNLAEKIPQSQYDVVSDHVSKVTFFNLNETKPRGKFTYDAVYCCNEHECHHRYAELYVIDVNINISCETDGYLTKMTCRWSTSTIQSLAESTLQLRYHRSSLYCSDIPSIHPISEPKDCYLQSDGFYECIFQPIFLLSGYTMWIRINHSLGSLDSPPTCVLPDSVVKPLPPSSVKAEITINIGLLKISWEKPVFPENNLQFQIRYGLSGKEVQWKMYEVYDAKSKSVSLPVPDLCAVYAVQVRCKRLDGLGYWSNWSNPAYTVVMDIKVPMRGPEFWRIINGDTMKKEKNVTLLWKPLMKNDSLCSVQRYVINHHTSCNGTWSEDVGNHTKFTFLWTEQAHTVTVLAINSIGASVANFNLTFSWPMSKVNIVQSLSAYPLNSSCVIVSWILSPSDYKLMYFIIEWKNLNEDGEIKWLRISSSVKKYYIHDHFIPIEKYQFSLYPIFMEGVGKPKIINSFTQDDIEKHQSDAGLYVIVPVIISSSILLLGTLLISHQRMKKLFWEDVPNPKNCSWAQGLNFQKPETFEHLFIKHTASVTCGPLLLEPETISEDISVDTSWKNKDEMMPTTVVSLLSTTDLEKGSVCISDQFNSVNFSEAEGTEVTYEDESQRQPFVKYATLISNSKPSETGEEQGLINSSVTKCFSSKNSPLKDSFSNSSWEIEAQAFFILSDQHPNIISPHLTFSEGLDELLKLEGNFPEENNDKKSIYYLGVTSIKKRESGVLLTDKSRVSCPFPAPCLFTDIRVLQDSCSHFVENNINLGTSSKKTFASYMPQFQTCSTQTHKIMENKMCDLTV
molecule,measurement,setting,value
"recombinant mouse leptin mutein H7 (K11R, Q34R, T37A, F92C, S97Y, I136V), agonist (from UniProt P41160 22-167) (ligand)",BAF/3 bioassay: fold increase in bioactivity as compared to the WT mouse leptin,[1],0.5 fold
same,Luciferase bioassay: fold increase in bioactivity as compared to the WT mouse leptin,[1],0.3 fold
same,fold increase in affinity as compared to the WT mouse leptin,[2],0.83 fold
B1,fold reduction in affinity as compared to the non-pegylated SMLA,[3],6.2 fold
B2,fold increase in the affinity due to D23L mutation (against HLA),[4],44 fold
B3,fold increase in the affinity due to D23L mutation (against PEG-HLA),[5],80 fold
B4,"fold reduction in affinity by pegylation, as compared to MLA",[6],6.3 fold
